The target of this assay is T1, Histidine-tagged AIMP1 (immobilised in SPR) (UniProt Q12904 1-312).
T1 sequence (looked up): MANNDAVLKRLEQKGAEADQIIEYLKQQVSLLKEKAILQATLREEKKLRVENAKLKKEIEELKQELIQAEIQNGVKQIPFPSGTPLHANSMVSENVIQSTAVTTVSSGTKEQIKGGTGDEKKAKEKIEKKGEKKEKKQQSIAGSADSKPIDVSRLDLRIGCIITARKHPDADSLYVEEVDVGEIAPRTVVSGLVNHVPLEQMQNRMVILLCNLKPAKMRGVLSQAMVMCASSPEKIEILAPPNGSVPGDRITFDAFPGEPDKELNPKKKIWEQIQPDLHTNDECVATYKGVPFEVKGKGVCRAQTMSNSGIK
The experiment in a line: SPR. Background: Surface plasmon resonance follows binding to a sensor surface in real time, without labels.

B1: His-tagged AIMP3 (natural protein, UniProt O43324 1-174, looked up)
chain: MAAAAELSLLEKSLGLSKGNKYSAQGERQIPVLQTNNGPSLTGLTTIAAHLVKQANKEYLLGSTAEEKAIVQQWLEYRVTQVDGHSSKNDIHTLLKDLNSYLEDKVYLTGYNFTLADILLYYGLHRFIVDLTVQEKEKYLNVSRWFCHIQHYPGIRQHLSSVVFIKNRLYTNSH
On to B1, for which the affinity, expressed as Kd, was 25.3 nM.

The values above are taken from paper PMC5959800 (The international journal of biochemistry & cell biology, 2018).
